According to patent US20260250318A1, “COMPOSITIONS AND METHODS FOR CROSSING THE BLOOD BRAIN BARRIER” (VOYAGER THERAPEUTICS, INC., priority 2022, published 2026):

Assays:
[1] = target: T1, human ALPL expressed on cells (alkaline phosphatase tissue-nonspecific isozyme, NM_000478.4) (human, UniProt P05186 18-501); assay: cell-based or functional assay
T1 sequence: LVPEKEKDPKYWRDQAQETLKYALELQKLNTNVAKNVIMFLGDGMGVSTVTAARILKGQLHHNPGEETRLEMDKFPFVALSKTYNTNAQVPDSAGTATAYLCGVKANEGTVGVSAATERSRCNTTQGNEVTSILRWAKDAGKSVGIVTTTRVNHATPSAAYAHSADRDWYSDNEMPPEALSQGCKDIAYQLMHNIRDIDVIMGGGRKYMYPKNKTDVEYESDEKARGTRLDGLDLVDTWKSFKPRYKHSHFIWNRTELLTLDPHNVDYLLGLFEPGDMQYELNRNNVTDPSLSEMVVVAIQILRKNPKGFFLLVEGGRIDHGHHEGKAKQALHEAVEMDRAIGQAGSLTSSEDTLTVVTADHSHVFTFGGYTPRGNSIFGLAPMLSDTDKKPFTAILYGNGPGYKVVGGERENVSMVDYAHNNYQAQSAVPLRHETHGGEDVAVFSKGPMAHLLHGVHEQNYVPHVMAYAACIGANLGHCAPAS

[2] = target: T1, human ALPL expressed on cells (alkaline …); assay: cell-based or functional assay; remark: listed apart in the source

B1: TTM-002 capsid variant (AAV particle comprising the TTM-002 AAV9 capsid variant) (other)
chain 1: MAADGYLPDWLEDNLSEGIREWWALKPGAPQPKANQQHQDNARGLVLPGYKYLGPGNGLDKGEPVNAADAAALEHDKAYDQQLKAGDNPYLKYNHADAEFQERLKEDTSFGGNLGRAVFQAKKRLLEPLGLVEEAAKTAPGKKRPVEQSPQEPDSSAGIGKSGAQPAKKRLNFGQTGDTESVPDPQPIGEPPAAPSGVGSLTMASGGGAPVADNNEGADGVGSSSGNWHCDSQWLGDRVITTSTRTWALPTYNNHLYKQISNSTSGGSSNDNAYFGYSTPWGYFDFNRFHCHFSPRDWQRLINNNWGFRPKRLNFKLFNIQVKEVTDNNGVKTIANNLTSTVQVFTDSDYQLPYVLGSAHEGCLPPFPADVFMIPQYGYLTLNDGSQAVGRSSFYCLEYFPSQMLRTGNNFQFSYEFENVPFHSSYAHSQSLDRLMNPLIDQYLYYLSKTINGHDSPHKSGQNQQTLKFSVAGPSNMAVQGRNYIPGPSYRQQRVSTTVTQNNNSEFAWPGASSWALNGRNSLMNPGPAMASHKEGEDRFFPLSGSLIFGKQGTGRDNVDADKVMITNEEEIKTTNPVATESYGQVATNHQSAQAQAQTGWVQNQGILPGMVWQDRDVYLQGPIWAKIPHTDGNFHPSPLMGGFGMKHPPPQILIKNTPVPADPPTAFNKDKLNSFITQYSTGQVSVEIEWELQKENSKRWNPEIQYTSNYYKSNNVEFAVNTEGVYSEPRPIGTRYLTRNL
chain 2: TAPGKKRPVEQSPQEPDSSAGIGKSGAQPAKKRLNFGQTGDTESVPDPQPIGEPPAAPSGVGSLTMASGGGAPVADNNEGADGVGSSSGNWHCDSQWLGDRVITTSTRTWALPTYNNHLYKQISNSTSGGSSNDNAYFGYSTPWGYFDFNRFHCHFSPRDWQRLINNNWGFRPKRLNFKLFNIQVKEVTDNNGVKTIANNLTSTVQVFTDSDYQLPYVLGSAHEGCLPPFPADVFMIPQYGYLTLNDGSQAVGRSSFYCLEYFPSQMLRTGNNFQFSYEFENVPFHSSYAHSQSLDRLMNPLIDQYLYYLSKTINGHDSPHKSGQNQQTLKFSVAGPSNMAVQGRNYIPGPSYRQQRVSTTVTQNNNSEFAWPGASSWALNGRNSLMNPGPAMASHKEGEDRFFPLSGSLIFGKQGTGRDNVDADKVMITNEEEIKTTNPVATESYGQVATNHQSAQAQAQTGWVQNQGILPGMVWQDRDVYLQGPIWAKIPHTDGNFHPSPLMGGFGMKHPPPQILIKNTPVPADPPTAFNKDKLNSFITQYSTGQVSVEIEWELQKENSKRWNPEIQYTSNYYKSNNVEFAVNTEGVYSEPRPIGTRYLTRNL
chain 3: MASGGGAPVADNNEGADGVGSSSGNWHCDSQWLGDRVITTSTRTWALPTYNNHLYKQISNSTSGGSSNDNAYFGYSTPWGYFDFNRFHCHFSPRDWQRLINNNWGFRPKRLNFKLFNIQVKEVTDNNGVKTIANNLTSTVQVFTDSDYQLPYVLGSAHEGCLPPFPADVFMIPQYGYLTLNDGSQAVGRSSFYCLEYFPSQMLRTGNNFQFSYEFENVPFHSSYAHSQSLDRLMNPLIDQYLYYLSKTINGHDSPHKSGQNQQTLKFSVAGPSNMAVQGRNYIPGPSYRQQRVSTTVTQNNNSEFAWPGASSWALNGRNSLMNPGPAMASHKEGEDRFFPLSGSLIFGKQGTGRDNVDADKVMITNEEEIKTTNPVATESYGQVATNHQSAQAQAQTGWVQNQGILPGMVWQDRDVYLQGPIWAKIPHTDGNFHPSPLMGGFGMKHPPPQILIKNTPVPADPPTAFNKDKLNSFITQYSTGQVSVEIEWELQKENSKRWNPEIQYTSNYYKSNNVEFAVNTEGVYSEPRPIGTRYLTRNL
- fold change in luciferase activity relative to the pCMV6 control cells (cells transfected with ALPL) [1]: 24 fold
- transcytosis assay: virus detected in the bottom chamber (percent to the initial virus, qPCR), MDCK ALPL overexpressing cells against MDCK cells that did not express ALPL [2]: 149 fold
- transcytosis assay: virus detected in the bottom chamber (percent to the initial virus, qPCR), MDCK ALPL overexpressing cells, TTM-002 against AAV9 [2]: 252 fold
- transcytosis assay: virus detected in the bottom chamber (percent to the initial virus, qPCR), single MDCK clone expressing ALPL, TTM-002 against AAV9 [2]: 7480 fold
